The record followed here is patent publication US20250361544A1, “TYPE III-D CRISPR-CAS SYSTEM AND USES THEREOF” (BOARD OF REGENTS, THE UNIVERSITY OF TEXAS SYSTEM, published 2025).

First the molecules themselves.
B2: Cas7-Cas5-Cas11 fusion subunit of the Synechocystis sp. PCC 6803 Type III-Dv complex (other)
chain: MRGIEITITMQSDWHVGTGMGRGELDSVVQRDGDNLPYIPGKTLTGILRDSCEQVALGLDNGQTRGLWHGWINFIFGDQPALAQGAIEPEPRPALIAIGSAHLDPKLKAAFQGKKQLQEAIAFMKPGVAIDAITGTAKKDFLRFEEVVRLGAKLTAEVELNLPDNLSETNKKVIAGILASGAKLTERLGGKRRRGNGRCELKFSGYSDQQIQWLKDNYQSVDQPPKYQQNKLQSAGDNPEQQPPWHIIPLTIKTLSPVVLPARTVGNVVECLDYIPGRYLLGYIHKTLGEYFDVSQAIAAGDLIITNATIKIDGKAGRATPFCLFGEKLDGGLGKGKGVYNRFQESEPDGIQLKGERGGYVGQFEQEQRNLPNTGKINSELFTHNTIQDDVQRPTSDVGGVYSYEAIIAGQTFVAELRLPDSLVKQITSKNKNWQAQLKATIRIGQSKKDQYGKIEVTSGNSADLPKPTGNNKTLSIWFLSDILLRGDRLNFNATPDDLKKYLENALDIKLKERSDNDLICIALRSQRTESWQVRWGLPRPSLVGWQAGSCLIYDIESGTVNAEKLQELMITGIGDRCTEGYGQIGFNDPLLSASLGKLTAKPKASNNQSQNSQSNPLPTNHPTQDYARLIEKAAWREAIQNKALALASSRAKREEILGIKIMGKDSQPTMTQLGGFRSVLKRLHSRNNRDIVTGYLTALEQVSNRKEKWSNTSQGLTKIRNLVTQENLIWNHLDIDFSPLTITQNGVNQLKSELWAEAVRTLVDAIIRGHKRDLEKAQENESNQQSQGAA
notes: Untagged, co-expressed from pPF2434 in E. coli; one copy in the complex; also called Cas7-5-11; Cas5-Cas7-Cas11

In data set [1] the target is T1, Cas10 subunit of the Synechocystis sp. PCC 6803 Type III-Dv CRISPR-Cas complex, with N-terminal His6 tag and … (Synechocystis sp. PCC 6803).
T1 construct: Whole gene amplified from Synechocystis genomic DNA and co-expressed in E. coli from pPF2434; The complex also holds a 37-nt crRNA; also called His6-TEV-Cas10; N-His6-tagged Cas10; not shown: TEV cleavage was inefficient, so
T1 chain: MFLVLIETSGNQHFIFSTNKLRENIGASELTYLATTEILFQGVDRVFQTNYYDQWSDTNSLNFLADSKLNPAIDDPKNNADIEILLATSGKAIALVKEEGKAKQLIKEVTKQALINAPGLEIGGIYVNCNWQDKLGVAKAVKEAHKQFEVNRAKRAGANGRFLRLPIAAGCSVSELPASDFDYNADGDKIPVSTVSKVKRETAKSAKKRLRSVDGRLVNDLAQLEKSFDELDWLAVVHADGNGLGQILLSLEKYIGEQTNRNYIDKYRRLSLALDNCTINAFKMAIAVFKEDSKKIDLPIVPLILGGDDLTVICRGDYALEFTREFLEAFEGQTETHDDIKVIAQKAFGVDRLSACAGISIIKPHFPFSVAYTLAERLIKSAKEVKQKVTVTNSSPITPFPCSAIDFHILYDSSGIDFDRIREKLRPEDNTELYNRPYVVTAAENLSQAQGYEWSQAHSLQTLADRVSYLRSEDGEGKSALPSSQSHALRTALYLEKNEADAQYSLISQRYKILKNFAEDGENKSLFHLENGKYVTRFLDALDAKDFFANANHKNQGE
Description: cryo-EM structure (summary of Example 1). The procedure:
(§1) Fully assembled Type III-D binary complex was diluted to a concentration of 0.3 mg/ml in SEC buffer before 2.5 μl of sample was added to a quantifoil 1.2/1.3 grid that was glow discharged for 1 minute. Sample was applied to the grid in an FEI Vitrobot MarkIV kept at 100% humidity and 4° C. before blotting for 5.5 seconds with a force of 0. For the ssRNA target-bound complex, non-self ssRNA was mixed with the binary complex with a 2:1 molar ratio of RNA:Binary complex in SEC buffer to a final protein concentration of 0.3 mg/mL. Grids of the target-bound complex were frozen identical to that of the binary complex. Both grids were loaded to an FEI Titan Krios (Sauer Structural Biology Lab, University of Texas at Austin) operating at 300 kV. Images were taken at a pixel size of 0.81 Å/pixel with a dose rate of 10.6 e⁻/pixel/s for 5 seconds using a Gatan K3 direct electron detector, giving a final dosage of 80.5 e⁻/Å². Data collection was automated using SerialEM using a defocus range of −1.2 to −2.2 μm.

For data set [2], the target named is B2. Description: cryo-EM structure (summary of Example 1). The procedure:
as §1

The target of data set [3] is T2, Cas7-Cas7 fusion subunit of the Synechocystis sp. PCC 6803 Type III-Dv complex (Synechocystis sp. PCC 6803).
T2 construct: Untagged, co-expressed from pPF2434 in E. coli; one copy in the complex; also called Cas7-2x; Cas7_2x
T2 chain: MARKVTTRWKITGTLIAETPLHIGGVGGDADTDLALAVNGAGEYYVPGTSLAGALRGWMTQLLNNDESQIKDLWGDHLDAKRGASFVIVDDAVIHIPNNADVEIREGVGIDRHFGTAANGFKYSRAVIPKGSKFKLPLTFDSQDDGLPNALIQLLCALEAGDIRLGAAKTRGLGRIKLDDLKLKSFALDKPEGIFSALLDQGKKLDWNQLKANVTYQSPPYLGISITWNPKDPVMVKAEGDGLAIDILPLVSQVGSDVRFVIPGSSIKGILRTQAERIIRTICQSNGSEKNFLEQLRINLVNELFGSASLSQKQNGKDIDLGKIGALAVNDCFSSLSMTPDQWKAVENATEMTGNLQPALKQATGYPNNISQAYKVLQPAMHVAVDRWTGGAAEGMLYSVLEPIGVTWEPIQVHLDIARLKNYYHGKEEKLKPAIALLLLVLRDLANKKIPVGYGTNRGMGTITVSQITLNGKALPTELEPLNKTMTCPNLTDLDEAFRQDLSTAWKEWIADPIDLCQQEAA
Kind of data set: cryo-EM structure of the binary complex, 2.5 Å. As to the method:
as §1
(§2) To delineate the architecture of this Type III-Dv effector, we used cryo-EM to determine a 2.5-Å resolution structure of the complex containing the nt crRNA (FIG. 1e,f, FIG. 8). To gain preliminary insights, we generated initial models of each subunit using Alphafold 2. […]

In data set [4] the target is Type III-Dv effector complex (Cas10, Cas7-Cas5-Cas11, Cas7-2x, Csx19, Cas7-insertion) (Synechocystis sp. PCC 6803). Kind of data set: structure; cryo-EM 2.5 A binary complex with 37-nt crRNA. Particulars: tags: N-terminal His6-TEV on Cas10. As to the method: as §1, §2

B1: Csx19 subunit of the Synechocystis sp. PCC 6803 Type III-Dv complex (other)
chain: MPAGGRLMKNLYHYHQYEITLESAVDSCKNHLQAAIGLLYSPQKCELVKLDNSGKLVDSYNRLKFNNLGVFEARFFNLNCELRWVNESNGNGTAVLLSESDITLTGFEKGLQEFITAIDQQYLLWGEPAKHPPNADGWQRLAEARIGKLDIPLDNPLKPKDRVFLTSEEYIAEVDDFGNCAVIDERLIKLEVK
notes: Untagged, co-expressed from pPF2434 in E. coli; one copy in the complex
Regarding B1, the binding result in data set [1] and in data set [2] was “binds” in each case.

For the molecule B2, the binding result in data set [3] is recorded as “binds”.

Consider ACUGAAACUGUAGUAGAACCAAUCGGGGUCGUCAAUA (ssRNA) [mature crRNA spacer 1], for which, in data set [4], the binding result was “binds”.
